Columns and labels:
[1] = system: McsS-YebF fusion peptide
[2] = system: Microcin S peptide

## Microcin immunity protein (mcsI)
[1]
  OD600 growth of E. coli Top10 after induction with 0.125% v/v L-arabinose: the OD600 reading was restored significantly compared to the un-induced and control cultures
[2]
  OD600 growth of E. coli Top10 after induction with 0.125% v/v L-arabinose: the OD600 reading was restored significantly compared to the un-induced and control cultures

— patent US20170335333
